Measured values published in PMC4409929 (Cell, 2015).
Where a chain is given by its changes, count along the chain named. Numbers in names are those of the source. Read-outs that look alike come from different tables or passages of the source. Each block holds one molecule with its values, some of them ahead of it. Where no end group is shown, it is not given here. The star is where a group is joined. 5FAM = O=C1OC2(c3ccc(O)cc3Oc3cc(O)ccc32)c2ccc(C(=O)*)cc21

T1: TcEccC(cyto), cytoplasmic portion of EccC from Thermomonospora curvata (Thermomonospora curvata, UniProt D1A4G7 199-1315)
T1 sequence (looked up): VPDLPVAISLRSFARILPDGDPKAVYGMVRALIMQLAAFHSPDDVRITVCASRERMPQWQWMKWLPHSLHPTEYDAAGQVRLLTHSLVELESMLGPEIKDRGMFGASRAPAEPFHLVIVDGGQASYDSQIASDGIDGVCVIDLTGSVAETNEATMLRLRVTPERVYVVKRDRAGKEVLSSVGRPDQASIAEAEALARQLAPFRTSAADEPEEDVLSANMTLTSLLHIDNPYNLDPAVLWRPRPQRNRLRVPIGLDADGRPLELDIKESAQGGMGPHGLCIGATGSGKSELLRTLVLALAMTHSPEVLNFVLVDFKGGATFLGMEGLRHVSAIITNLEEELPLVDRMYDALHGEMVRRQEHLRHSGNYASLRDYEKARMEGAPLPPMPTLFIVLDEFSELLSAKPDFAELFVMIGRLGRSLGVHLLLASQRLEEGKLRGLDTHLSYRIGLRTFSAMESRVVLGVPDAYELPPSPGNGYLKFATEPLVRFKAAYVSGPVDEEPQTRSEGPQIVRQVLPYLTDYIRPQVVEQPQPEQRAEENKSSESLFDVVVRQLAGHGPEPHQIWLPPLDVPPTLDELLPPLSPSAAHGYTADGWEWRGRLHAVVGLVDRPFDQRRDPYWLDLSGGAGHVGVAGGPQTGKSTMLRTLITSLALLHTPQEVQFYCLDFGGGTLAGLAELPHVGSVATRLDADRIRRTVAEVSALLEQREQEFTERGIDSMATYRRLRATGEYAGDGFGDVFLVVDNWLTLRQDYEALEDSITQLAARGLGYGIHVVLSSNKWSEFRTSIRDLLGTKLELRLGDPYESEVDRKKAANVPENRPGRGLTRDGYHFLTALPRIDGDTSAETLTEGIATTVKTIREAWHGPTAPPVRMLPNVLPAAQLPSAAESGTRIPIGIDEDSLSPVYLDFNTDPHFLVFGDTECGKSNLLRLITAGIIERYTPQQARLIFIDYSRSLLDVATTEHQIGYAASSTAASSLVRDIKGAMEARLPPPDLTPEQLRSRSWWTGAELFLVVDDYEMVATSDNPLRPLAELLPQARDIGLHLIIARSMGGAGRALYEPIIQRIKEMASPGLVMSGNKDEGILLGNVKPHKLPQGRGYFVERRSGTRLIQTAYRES

B1: TcEsxB, EsxB of Thermomonospora curvata (natural protein, UniProt D1A4H0 1-104, looked up)
chain: MAPQSAVDRAAMAQAAQDIEQSANAIRGMQNQLASAKDQLRSHWEGDASMAFEAVFNRFNEDFSRVLKALDGMHESLVQTRITYEAREEAAQQSVNRVQALLNG
B2: TcEsxAB heterodimer (complex, Thermomonospora curvata)
chain 1: MSDYTRANFGGLSEGEAQFSMTARALLDELTDLEGKLRAKLDRWDGDAQAAYWNYQKEWDAAAKDMQNVVAQLGVAIREAHDNYQAAERANTSIWAG
chain 2: B1 chain
B3: TcEccC(cyto,R543A) (domain or fragment, Thermomonospora curvata, UniProt D1A4G7 199-1315, looked up)
chain: T1 sequence (looked up) with R345A
B4: TcEsxA, EsxA of Thermomonospora curvata (natural protein, UniProt D1A4H1 1-97, looked up)
chain: B2 chain 1

Assays:
GbEssCb = GbEssCb (Geobacillus thermodenitrificans, UniProt A4IKE7); details: ATP bound in both ATPase domains
[1] = biological target: T1, TcEccC(cyto), cytoplasmic portion of …
TcEccC(cyto,R543A) = biological target: B3; experiment: cell-based or functional assay
[2] = biological target: the molecule itself
[3] = biological target: T1, TcEccC(cyto), cytoplasmic portion of …; experiment: fluorescence polarisation
cross-linking = biological target: the molecule itself; experiment: cross-linking
[4] = biological target: T1, TcEccC(cyto), cytoplasmic portion of …; experiment: fluorescence polarisation; remark: listed apart in the source
[5] = biological target: B1

GbEssCb, sequence (A4IKE7 921-1479): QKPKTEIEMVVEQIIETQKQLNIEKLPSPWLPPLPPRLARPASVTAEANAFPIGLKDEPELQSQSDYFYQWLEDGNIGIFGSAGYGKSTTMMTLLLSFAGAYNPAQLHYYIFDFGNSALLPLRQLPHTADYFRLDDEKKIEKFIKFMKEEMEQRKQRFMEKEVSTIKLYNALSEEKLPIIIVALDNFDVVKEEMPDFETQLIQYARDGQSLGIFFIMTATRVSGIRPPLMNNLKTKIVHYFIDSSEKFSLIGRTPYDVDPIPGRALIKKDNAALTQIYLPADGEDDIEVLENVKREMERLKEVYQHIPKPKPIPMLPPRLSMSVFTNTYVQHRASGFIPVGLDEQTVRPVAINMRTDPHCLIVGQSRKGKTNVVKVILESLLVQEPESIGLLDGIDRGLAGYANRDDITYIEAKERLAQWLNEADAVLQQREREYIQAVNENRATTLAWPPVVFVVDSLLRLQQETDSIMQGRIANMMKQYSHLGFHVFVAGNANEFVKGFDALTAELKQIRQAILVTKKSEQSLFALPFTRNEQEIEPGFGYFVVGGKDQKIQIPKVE

Molecule: Nc1ncnc2c1ncn2[C@@H]1O[C@H](COP(=O)(O)OP(=O)(O)OP(=O)(O)O)[C@@H](O)[C@H]1O [ATP]
X-ray crystal structure (GbEssCb): has a very similar structure, with both domains bound to ATP

Molecule: B1
Kd [1]: ~10 µM
ATPase activity of TcEccC(cyto,R543A) with added TcEsxB (0-10 μM) (TcEccC(cyto,R543A)): 5 fold
stoichiometry N [2]: 2

Molecule: B2
binding result [3]: binds

Molecule: B3
binding result (cross-linking): binds

binding result [4]: binds
Molecule: 5FAM-VNRVQALLNG [fluorescently labeled signal sequence peptide 5-FAM-VNRVQALLNG]

Molecule: B4
stoichiometry N [5]: 1
